Results published in patent US20230372484A1 (VOR BIOPHARMA, published 2023).

B1: CD33-CAR3 (other)
chain: QVQLVQSGAEVKKPGSSVKVSCKASGYTFTDYNMHWVRQAPGQGLEWIGYIYPYNGGTGYNQKFKSKATITADESTNTAYMELSSLRSEDTAVYYCARGRPAMDYWGQGTLVTVSSGGGGSGGGGSGGGGSDIQMTQSPSSLSASVGDRVTITCRASESVDNYGISFMNWFQQKPGKAPKLLIYAASNQGSGVPSRFSGSGSGTDFTLTISSLQPDDFATYYCQQSKEVPWTFGQGTKVEIKSGAAAIEVMYPPPYLDNEKSNGTIIHVKGKHLCPSPLFPGPSKPFWVLVVVGGVLACYSLLVTVAFIIFWVRSKRSRLLHSDYMNMTPRRPGPTRKHYQPYAPPRDFAAYRSRVKFSRSADAPAYQQGQNQLYNELNLGRREEYDVLDKRRGRDPEMGGKPRRKNPQEGLYNELQKDKMAEAYSEIGMKGERRRGKGHDGLYQGLSTATKDTYDALHMQALPPRGS
B2: CD33-CAR4 (other)
chain: EVQLVQSGAEVKKPGSSVKVSCKASGYTITDSNIHWVRQAPGQSLEWIGYIYPYNGGTDYNQKFKNRATLTVDNPTNTAYMELSSLRSEDTAFYYCVNGNPWLAYWGQGTLVTVSSGGGGSGGGGSGGGGSDIQLTQSPSTLSASVGDRVTITCRASESLDNYGIRFLTWFQQKPGKAPKLLMYAASNQGSGVPSRFSGSGSGTEFTLTISSLQPDDFATYYCQQTKEVPWSFGQGTKVEVKRTSSGAAAIEVMYPPPYLDNEKSNGTIIHVKGKHLCPSPLFPGPSKPFWVLVVVGGVLACYSLLVTVAFIIFWVRSKRSRLLHSDYMNMTPRRPGPTRKHYQPYAPPRDFAAYRSRVKFSRSADAPAYQQGQNQLYNELNLGRREEYDVLDKRRGRDPEMGGKPRRKNPQEGLYNELQKDKMAEAYSEIGMKGERRRGKGHDGLYQGLSTATKDTYDALHMQALPPRGS
B3: CD33-CAR6 (other)
chain: QVQLVETGGGLVRAGGSLRLSCAASGRTADIYNIGWFRQAPGKEREFVAAITWIGRTPYYADAVKGRFAFSTDSAKNTVSLQMDNLKPEDTGVYYCNAAHYLEGNTDYYWGQGTQVTVSSAAATTTPAPRPPTPAPTIASQPLSLRPEACRPAAGGAVHTRGLDFACDIYIWAPLAGTCGVLLLSLVITLYCKRGRKKLLYIFKQPFMRPVQTTQEEDGCSCRFPEEEEGGCELRVKFSRSADAPAYQQGQNQLYNELNLGRREEYDVLDKRRGRDPEMGGKPRRKNPQEGLYNELQKDKMAEAYSEIGMKGERRRGKGHDGLYQGLSTATKDTYDALHMQALPPR
B4: CD33-CAR5 (other)
chain: QVKLEESGGGSVQAGESLRLSCTASGITFRDYDIDWYRQAPGKEREWLATITPSGTTHYPDSVKGRATISRDSAKNTVYLQMNSLKPEDTARYECNTLAYWGSGTQVTVSSAAATTTPAPRPPTPAPTIASQPLSLRPEACRPAAGGAVHTRGLDFACDIYIWAPLAGTCGVLLLSLVITLYCKRGRKKLLYIFKQPFMRPVQTTQEEDGCSCRFPEEEEGGCELRVKFSRSADAPAYQQGQNQLYNELNLGRREEYDVLDKRRGRDPEMGGKPRRKNPQEGLYNELQKDKMAEAYSEIGMKGERRRGKGHDGLYQGLSTATKDTYDALHMQALPPR
B5: CD33-CAR7 (other)
chain: MELGLSWVVLAALLQGVQAQVQLVQPGGSLRLFCVASEEFFSIYAMGWYRQAPGKQHEMVARFTRDGKITYADSAKGRFTITRDAKNTLNLQMNGLIPEDTAVYYCNINHYWGQGTQVTVSSAAATTTPAPRPPTPAPTIASQPLSLRPEACRPAAGGAVHTRGLDFACDIYIWAPLAGTCGVLLLSLVITLYCKRGRKKLLYIFKQPFMRPVQTTQEEDGCSCRFPEEEEGGCELRVKFSRSADAPAYQQGQNQLYNELNLGRREEYDVLDKRRGRDPEMGGKPRRKNPQEGLYNELQKDKMAEAYSEIGMKGERRRGKGHDGLYQGLSTATKDTYDALHMQALPPR

Molecular target: CD33 (UniProt P20138 18-364, limits assumed)
Sequence (P20138 18-364 limits assumed): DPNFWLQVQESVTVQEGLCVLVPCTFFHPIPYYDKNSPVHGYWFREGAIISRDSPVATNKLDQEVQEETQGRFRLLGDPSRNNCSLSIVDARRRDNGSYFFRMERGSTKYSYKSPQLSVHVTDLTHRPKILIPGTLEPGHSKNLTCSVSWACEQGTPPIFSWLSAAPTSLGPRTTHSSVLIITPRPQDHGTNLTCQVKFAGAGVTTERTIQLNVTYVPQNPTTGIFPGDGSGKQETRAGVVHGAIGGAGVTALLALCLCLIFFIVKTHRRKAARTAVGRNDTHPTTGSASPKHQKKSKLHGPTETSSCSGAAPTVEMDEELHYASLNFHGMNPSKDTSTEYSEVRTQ
Test: cell-based or functional assay

| Binder | Ratio (NFAT-inducible reporter with wild-type MOLM-13 relative to MOLM-13 CD33KO) [ratio] | Testing FP2 Expression (CD33+) |
| --- | --- | --- |
| B1 | 1.44 | 3.9 % of constitutive-fluorescence-positive cells |
| B2 | 2.41 | 4.14 % of constitutive-fluorescence-positive cells |
| B3 | 3.6 | 22.9 % of constitutive-fluorescence-positive cells |
| B4 | 8.5 | 28.2 % of constitutive-fluorescence-positive cells |
| B5 | 1.98 | 17.6 % of constitutive-fluorescence-positive cells |
